Test results from article PMC12239582, “The cyclic di-GMP receptor YcgR links the second messenger with the putrescine quorum sensing system in modulation of Dickeya oryzae motility” (mBio, 2025).

Molecular target: T1, SpeA-His (Dickeya oryzae EC1, UniProt A0AB39IRQ5 1-658)
T1 sequence (looked up): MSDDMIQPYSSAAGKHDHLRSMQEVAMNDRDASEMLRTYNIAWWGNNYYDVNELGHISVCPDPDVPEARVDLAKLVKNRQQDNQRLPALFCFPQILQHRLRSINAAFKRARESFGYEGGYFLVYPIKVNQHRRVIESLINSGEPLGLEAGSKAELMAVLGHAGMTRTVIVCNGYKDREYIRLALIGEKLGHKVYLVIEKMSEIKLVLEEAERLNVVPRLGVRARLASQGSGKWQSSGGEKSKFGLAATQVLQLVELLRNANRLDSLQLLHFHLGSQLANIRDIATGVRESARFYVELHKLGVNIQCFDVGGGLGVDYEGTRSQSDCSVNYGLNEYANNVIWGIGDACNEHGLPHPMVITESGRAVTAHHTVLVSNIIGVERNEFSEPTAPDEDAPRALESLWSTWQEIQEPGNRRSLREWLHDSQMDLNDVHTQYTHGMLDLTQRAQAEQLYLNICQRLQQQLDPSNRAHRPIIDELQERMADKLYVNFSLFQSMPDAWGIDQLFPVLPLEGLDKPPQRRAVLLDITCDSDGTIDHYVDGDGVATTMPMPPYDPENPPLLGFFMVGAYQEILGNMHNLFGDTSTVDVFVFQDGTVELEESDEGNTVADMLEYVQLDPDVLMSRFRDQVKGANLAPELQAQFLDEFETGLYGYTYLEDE
Experiment: cell-based or functional assay

B1: GST-YcgR (natural protein)
chain: MDVVDDNMKEQYARRGKMAICATLRGLQKQDATVMVYHTHGQFISKILEVDSDEEEFLFDLGALERENSRALFAGELGFVAETAGAKVEFRTTIIRTVEHDNLPAFCAAIPDVLYYIQRRNFFRINSPAWPPMVCRGELPDSTYFEFNLKDLSLGGLCMYTDDQGLAVLFEPGMILKNVDVDLASYGQFCLDMEFVNHATTKVVDSKGEVKQIERLSFKFPTLSAVQERGLQQVITELELDQNEKRKRLR
**Q.** How did the “yield of agmatine made by SpeA in vitro (OPA fluorescence) with YcgR added at a 2:1 ratio, against the reaction without YcgR; 75% increase at 1 h to about 160% at 2 h” value turn out when B1 was run?
**A.** Its value is ~160%.
